From patent publication US20170051042A1 come the findings set out here.

Assay [1] has as its target GPIIb/IIIa on mouse platelets (mouse) (UniProt Q9QUM0). Nature of the assay: mouse platelet depletion assay, unbound FVIII activity in supernatant; the filing calls this non-specific binding, not occurring through the peptide.
In assay [2] the target is GPIIb/IIIa on human platelets (human) (UniProt P08514). Nature of the assay: platelet depletion assay, 2.5 nM, plasma lacking FVIII and vWF (condition C); the filing calls this non-specific binding to platelets, not through GPIIb/IIIa.
The target in assay [3] is purified GPIIb-IIIa (Innovative Research), immobilized (UniProt P08514). Put plainly: solid phase competition of 3.5 nM biotinylated fibrinogen on coated GPIIb-IIIa, N=4.

Sequence of GPIIb/IIIa on mouse platelets (mouse) (Q9QUM0 32-1033, chain 1 of 2): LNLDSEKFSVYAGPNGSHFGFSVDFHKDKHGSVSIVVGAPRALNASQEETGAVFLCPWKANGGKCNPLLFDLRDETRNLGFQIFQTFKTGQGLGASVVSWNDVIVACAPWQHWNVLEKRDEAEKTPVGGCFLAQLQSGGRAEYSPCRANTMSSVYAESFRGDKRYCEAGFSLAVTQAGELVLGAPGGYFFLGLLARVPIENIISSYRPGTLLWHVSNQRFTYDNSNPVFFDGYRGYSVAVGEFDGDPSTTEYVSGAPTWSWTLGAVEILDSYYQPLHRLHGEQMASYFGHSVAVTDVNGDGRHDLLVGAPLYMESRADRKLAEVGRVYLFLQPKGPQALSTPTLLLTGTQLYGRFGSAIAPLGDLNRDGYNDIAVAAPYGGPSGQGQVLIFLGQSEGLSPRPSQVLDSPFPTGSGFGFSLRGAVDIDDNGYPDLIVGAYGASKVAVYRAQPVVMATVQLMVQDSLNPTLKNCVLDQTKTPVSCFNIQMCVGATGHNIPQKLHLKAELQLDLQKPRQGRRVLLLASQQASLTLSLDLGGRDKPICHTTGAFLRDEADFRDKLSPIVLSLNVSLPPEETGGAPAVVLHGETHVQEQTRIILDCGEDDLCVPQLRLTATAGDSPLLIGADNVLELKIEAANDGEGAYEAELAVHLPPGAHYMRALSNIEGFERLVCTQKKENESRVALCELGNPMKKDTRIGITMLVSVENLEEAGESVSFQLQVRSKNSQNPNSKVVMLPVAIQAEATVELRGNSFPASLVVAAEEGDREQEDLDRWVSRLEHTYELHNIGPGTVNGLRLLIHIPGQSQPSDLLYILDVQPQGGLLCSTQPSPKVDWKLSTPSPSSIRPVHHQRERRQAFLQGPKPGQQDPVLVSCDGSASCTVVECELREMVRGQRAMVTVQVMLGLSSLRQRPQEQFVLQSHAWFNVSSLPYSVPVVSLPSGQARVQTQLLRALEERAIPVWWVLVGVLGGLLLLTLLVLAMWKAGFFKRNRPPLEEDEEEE
Sequence of GPIIb/IIIa on mouse platelets (mouse) (O54890 26-787, chain 2 of 2, further chain): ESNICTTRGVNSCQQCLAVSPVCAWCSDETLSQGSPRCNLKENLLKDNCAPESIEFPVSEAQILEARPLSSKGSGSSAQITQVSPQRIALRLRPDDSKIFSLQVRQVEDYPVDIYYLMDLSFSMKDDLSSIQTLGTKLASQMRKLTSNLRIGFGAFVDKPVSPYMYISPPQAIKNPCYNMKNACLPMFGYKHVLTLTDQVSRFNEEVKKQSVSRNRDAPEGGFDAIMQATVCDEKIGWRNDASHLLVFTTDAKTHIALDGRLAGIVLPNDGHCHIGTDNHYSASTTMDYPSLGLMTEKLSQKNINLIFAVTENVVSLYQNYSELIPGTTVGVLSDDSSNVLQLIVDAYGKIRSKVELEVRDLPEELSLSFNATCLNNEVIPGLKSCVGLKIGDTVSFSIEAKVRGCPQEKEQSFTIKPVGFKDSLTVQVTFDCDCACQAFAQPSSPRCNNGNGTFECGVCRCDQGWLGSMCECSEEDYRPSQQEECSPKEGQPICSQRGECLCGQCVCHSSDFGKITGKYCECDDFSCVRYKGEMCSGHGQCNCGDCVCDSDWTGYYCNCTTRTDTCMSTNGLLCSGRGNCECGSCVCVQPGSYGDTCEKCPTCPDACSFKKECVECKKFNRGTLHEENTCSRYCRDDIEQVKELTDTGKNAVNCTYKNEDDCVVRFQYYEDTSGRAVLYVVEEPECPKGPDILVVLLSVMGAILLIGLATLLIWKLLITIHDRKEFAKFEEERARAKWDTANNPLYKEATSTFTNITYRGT

In turn, “unmodified recombinant FVIII (from UniProt P00451 20-2351)” displayed a percent of activity bound in assay [1] of 59%. For the same substance, the percent of FVIII activity bound in assay [2] was determined as 35%.
Usually IC50 stands for the concentration that gives 50% inhibition. Higher therefore signals lower potency. In assay [3], integrilin (peptide) showed an IC50 of 1.3 nM.
